tested on: Escherichia coli TOP10; experiment: shrunken log2 fold change of peptide-encoding DNA abundance (4.5 h post-induction vs induction); higher = less antimicrobial activity (less host growth inhibition); details: time post-induction: 4.5 h; library: site-saturation at positions 5, 18, 19, 20
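Further: peptides expressed intracellularly from a pBAD plasmid library in pooled LB shake-flask culture, induced with 0.3% L-arabinose, DNA abundance read by NGS, three biological replicates, DESeq2 with apeglm shrinkage.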

Compared with RRIRWRPPRLPRPRPRPYKVPRP, RRIRSRPPRLPRPRPRPDWEPRP is higher in “shrunken log2 fold change” value: -0.482 for the first, -0.0106 for the second.

Going from RRIRFRPPRLPRPRPRPLLMPRP to RRIRYRPPRLPRPRPRPAMIPRP, the “shrunken log2 fold change” value rises from -0.564 to -0.229.

Compared with RRIRYRPPRLPRPRPRPAQYPRP, RRIRQRPPRLPRPRPRPLRPPRP is higher in “shrunken log2 fold change” value: -0.562 for the first, 0.699 for the second.

First: RRIRWRPPRLPRPRPRPYILPRP
Second: RRIRCRPPRLPRPRPRPNFDPRP
The “shrunken log2 fold change” value of the first is lower: -0.849 for the first, -0.179 for the second.

RRIRDRPPRLPRPRPRPFPKPRP and RRIRFRPPRLPRPRPRPMGFPRP are within 0.2 log units of each other in “shrunken log2 fold change” value: -0.201 for the first, -0.0249 for the second.

RRIRNRPPRLPRPRPRPAKVPRP and RRIRSRPPRLPRPRPRPGINPRP are within 0.2 log units of each other in “shrunken log2 fold change” value: -0.0027 for the first, 0.00688 for the second.

First: RRIRWRPPRLPRPRPRPIMRPRP
Second: RRIRYRPPRLPRPRPRPTLHPRP
The “shrunken log2 fold change” value of the first is higher: 0.0401 for the first, -0.749 for the second.

RRIRHRPPRLPRPRPRPHLTPRP and RRIRMRPPRLPRPRPRPSLVPRP are within 0.2 log units of each other in “shrunken log2 fold change” value: -0.0621 for the first, -0.252 for the second.

Compared with RRIRSRPPRLPRPRPRPHDTPRP, RRIRVRPPRLPRPRPRPMVFPRP is higher in “shrunken log2 fold change” value: -0.156 for the first, 0.0611 for the second.

Going from RRIRMRPPRLPRPRPRPCWSPRP to RRIRVRPPRLPRPRPRPLFEPRP, the “shrunken log2 fold change” value falls from 0.349 to 0.109.

First: RRIRCRPPRLPRPRPRPSNWPRP
Second: RRIRRRPPRLPRPRPRPERFPRP
The “shrunken log2 fold change” value of the first is lower: 0.0114 for the first, 0.293 for the second.

Going from RRIRWRPPRLPRPRPRPEWQPRP to RRIRWRPPRLPRPRPRPFEEPRP, the “shrunken log2 fold change” value rises from 0.0276 to 0.43.

First: RRIRARPPRLPRPRPRPCMKPRP
Second: RRIRKRPPRLPRPRPRPRQQPRP
The “shrunken log2 fold change” value of the first is lower: -0.167 for the first, 0.395 for the second.

RRIRNRPPRLPRPRPRPFCSPRP and RRIRLRPPRLPRPRPRPKWAPRP are within 0.2 log units of each other in “shrunken log2 fold change” value: -0.0765 for the first, -0.0391 for the second.

First: RRIRCRPPRLPRPRPRPCQKPRP
Second: RRIRCRPPRLPRPRPRPCIEPRP
The “shrunken log2 fold change” value of the first is higher: -0.103 for the first, -0.453 for the second.

Going from RRIRARPPRLPRPRPRPLFYPRP to RRIRMRPPRLPRPRPRPQWFPRP, the “shrunken log2 fold change” value rises from -0.312 to -0.0662.

First: RRIRERPPRLPRPRPRPKAEPRP
Second: RRIRLRPPRLPRPRPRPSNSPRP
The “shrunken log2 fold change” value of the first is higher: 0.0519 for the first, -0.564 for the second.

First: RRIRDRPPRLPRPRPRPDYNPRP
Second: RRIRVRPPRLPRPRPRPEQAPRP
The “shrunken log2 fold change” value of the first is lower: -0.204 for the first, 0.358 for the second.

Going from RRIRYRPPRLPRPRPRPSIQPRP to RRIRARPPRLPRPRPRPVRHPRP, the “shrunken log2 fold change” value rises from -0.594 to 0.399.

RRIRDRPPRLPRPRPRPKQAPRP and RRIRMRPPRLPRPRPRPFEKPRP are within 0.2 log units of each other in “shrunken log2 fold change” value: 0.0366 for the first, 0.00408 for the second.

Going from RRIRSRPPRLPRPRPRPEHCPRP to RRIRRRPPRLPRPRPRPFIPPRP, the “shrunken log2 fold change” value falls from -0.0141 to -0.506.

RRIRYRPPRLPRPRPRPFRQPRP and RRIRVRPPRLPRPRPRPFQDPRP are within 0.2 log units of each other in “shrunken log2 fold change” value: 0.0775 for the first, -0.0723 for the second.

RRIRQRPPRLPRPRPRPWRFPRP and RRIRIRPPRLPRPRPRPCHCPRP are within 0.2 log units of each other in “shrunken log2 fold change” value: -0.113 for the first, 0.0274 for the second.

First: RRIRSRPPRLPRPRPRPRPGPRP
Second: RRIRMRPPRLPRPRPRPDREPRP
The “shrunken log2 fold change” value of the first is higher: 0.658 for the first, -0.00516 for the second.

RRIRPRPPRLPRPRPRPRFVPRP and RRIRYRPPRLPRPRPRPARNPRP are within 0.2 log units of each other in “shrunken log2 fold change” value: 0.109 for the first, -0.0503 for the second.

RRIRQRPPRLPRPRPRPDDRPRP and RRIRTRPPRLPRPRPRPAKTPRP are within 0.2 log units of each other in “shrunken log2 fold change” value: -0.000777 for the first, 0.117 for the second.

First: RRIRTRPPRLPRPRPRPQGLPRP
Second: RRIRERPPRLPRPRPRPMEEPRP
The “shrunken log2 fold change” value of the first is lower: -0.0814 for the first, 0.161 for the second.

First: RRIRLRPPRLPRPRPRPHLPPRP
Second: RRIRVRPPRLPRPRPRPFMSPRP
The “shrunken log2 fold change” value of the first is lower: -0.353 for the first, 0.0334 for the second.

Going from RRIRDRPPRLPRPRPRPVSMPRP to RRIRKRPPRLPRPRPRPTHKPRP, the “shrunken log2 fold change” value rises from -0.0171 to 0.658.

RRIRVRPPRLPRPRPRPGKGPRP and RRIRQRPPRLPRPRPRPEWAPRP are within 0.2 log units of each other in “shrunken log2 fold change” value: 0.0187 for the first, 0.0739 for the second.

Compared with RRIRERPPRLPRPRPRPCHFPRP, RRIRTRPPRLPRPRPRPPMKPRP is lower in “shrunken log2 fold change” value: 0.161 for the first, -0.112 for the second.

Going from RRIRQRPPRLPRPRPRPCVWPRP to RRIRERPPRLPRPRPRPFHFPRP, the “shrunken log2 fold change” value falls from 0.213 to -0.787.

Going from RRIRERPPRLPRPRPRPEEYPRP to RRIRWRPPRLPRPRPRPPKFPRP, the “shrunken log2 fold change” value rises from -0.4 to 0.419.

Compared with RRIRNRPPRLPRPRPRPETFPRP, RRIRCRPPRLPRPRPRPHPAPRP is higher in “shrunken log2 fold change” value: 0.00884 for the first, 0.34 for the second.

RRIRVRPPRLPRPRPRPYTSPRP and RRIRYRPPRLPRPRPRPWDRPRP are within 0.2 log units of each other in “shrunken log2 fold change” value: -0.0679 for the first, -0.103 for the second.

Going from RRIRPRPPRLPRPRPRPPLGPRP to RRIRDRPPRLPRPRPRPTQQPRP, the “shrunken log2 fold change” value falls from 0.585 to 0.248.

RRIRIRPPRLPRPRPRPEYNPRP and RRIRCRPPRLPRPRPRPLHDPRP are within 0.2 log units of each other in “shrunken log2 fold change” value: 0.0781 for the first, 0.0221 for the second.

Compared with RRIRKRPPRLPRPRPRPFMYPRP, RRIRTRPPRLPRPRPRPTIIPRP is lower in “shrunken log2 fold change” value: -0.401 for the first, -0.786 for the second.

Going from RRIRGRPPRLPRPRPRPECEPRP to RRIRKRPPRLPRPRPRPKNVPRP, the “shrunken log2 fold change” value falls from 1.88 to 0.0773.

First: RRIRARPPRLPRPRPRPGQTPRP
Second: RRIRMRPPRLPRPRPRPTPAPRP
The “shrunken log2 fold change” value of the first is lower: 0.178 for the first, 2.13 for the second.

Compared with RRIRARPPRLPRPRPRPNQNPRP, RRIRTRPPRLPRPRPRPTDRPRP is lower in “shrunken log2 fold change” value: 0.0844 for the first, -0.212 for the second.

RRIRERPPRLPRPRPRPESSPRP and RRIRCRPPRLPRPRPRPHKAPRP are within 0.2 log units of each other in “shrunken log2 fold change” value: -0.192 for the first, -0.253 for the second.

Compared with RRIRVRPPRLPRPRPRPDINPRP, RRIRIRPPRLPRPRPRPWIMPRP is lower in “shrunken log2 fold change” value: -0.00784 for the first, -0.735 for the second.

First: RRIRYRPPRLPRPRPRPSHRPRP
Second: RRIRIRPPRLPRPRPRPAANPRP
The “shrunken log2 fold change” value of the first is lower: -0.479 for the first, 0.0204 for the second.

Compared with RRIRSRPPRLPRPRPRPENLPRP, RRIRYRPPRLPRPRPRPCDFPRP is lower in “shrunken log2 fold change” value: 0.026 for the first, -0.227 for the second.

First: RRIRRRPPRLPRPRPRPGFQPRP
Second: RRIRERPPRLPRPRPRPTLNPRP
The “shrunken log2 fold change” value of the first is higher: 0.301 for the first, -0.152 for the second.

Going from RRIRGRPPRLPRPRPRPFVDPRP to RRIRRRPPRLPRPRPRPEMYPRP, the “shrunken log2 fold change” value falls from 0.571 to 0.0119.

Compared with RRIRKRPPRLPRPRPRPKTYPRP, RRIRMRPPRLPRPRPRPPSHPRP is higher in “shrunken log2 fold change” value: -0.156 for the first, 0.622 for the second.

Compared with RRIRWRPPRLPRPRPRPWCTPRP, RRIRCRPPRLPRPRPRPFTAPRP is lower in “shrunken log2 fold change” value: 0.118 for the first, -0.553 for the second.

Going from RRIRQRPPRLPRPRPRPQMKPRP to RRIRMRPPRLPRPRPRPHTSPRP, the “shrunken log2 fold change” value rises from -0.264 to 0.242.

RRIRDRPPRLPRPRPRPNTEPRP and RRIRIRPPRLPRPRPRPVSVPRP are within 0.2 log units of each other in “shrunken log2 fold change” value: -0.0682 for the first, -0.191 for the second.

First: RRIRHRPPRLPRPRPRPQITPRP
Second: RRIRSRPPRLPRPRPRPFMIPRP
The “shrunken log2 fold change” value of the first is lower: -0.884 for the first, -0.184 for the second.

First: RRIRLRPPRLPRPRPRPFRQPRP
Second: RRIRPRPPRLPRPRPRPDWHPRP
The “shrunken log2 fold change” value of the first is higher: 0.0662 for the first, -0.159 for the second.

Going from RRIRRRPPRLPRPRPRPQAMPRP to RRIRRRPPRLPRPRPRPQNMPRP, the “shrunken log2 fold change” value falls from 0.0414 to -0.472.

In the case of RRIRPRPPRLPRPRPRPPWIPRP, the “shrunken log2 fold change” value is reported as -0.0483.
